Legend:
[1] = molecular target: CD44 (HCELL), native glycoprotein from human HSPCs (KG1a, CD34^pos fraction) (human) (UniProt P16070); test: SPR; CD44 captured from KG1a lysate on Hermes-3-mAb, E-Ig injected, 150 mM NaCl; apparent rate constant; 2nd experiment
[2] = molecular target: CD44 (HCELL), native glycoprotein from human HSPCs (KG1a, CD34^pos fraction) (human) (UniProt P16070); test: SPR; CD44 captured from KG1a lysate on Hermes-3-mAb, E-Ig injected (3.9-2000 nM), 150 mM NaCl; steady-state model; 1st experiment
[3] = molecular target: T1, CD43, native glycoprotein from KG1a cells (human, UniProt P16150 20-400, native glycosylation); test: SPR; CD43 captured from KG1a lysate on polyclonal CD43 Ab, E-Ig injected, 150 mM NaCl; apparent rate constant; 1st experiment
T1 construct: mature
T1 sequence (looked up): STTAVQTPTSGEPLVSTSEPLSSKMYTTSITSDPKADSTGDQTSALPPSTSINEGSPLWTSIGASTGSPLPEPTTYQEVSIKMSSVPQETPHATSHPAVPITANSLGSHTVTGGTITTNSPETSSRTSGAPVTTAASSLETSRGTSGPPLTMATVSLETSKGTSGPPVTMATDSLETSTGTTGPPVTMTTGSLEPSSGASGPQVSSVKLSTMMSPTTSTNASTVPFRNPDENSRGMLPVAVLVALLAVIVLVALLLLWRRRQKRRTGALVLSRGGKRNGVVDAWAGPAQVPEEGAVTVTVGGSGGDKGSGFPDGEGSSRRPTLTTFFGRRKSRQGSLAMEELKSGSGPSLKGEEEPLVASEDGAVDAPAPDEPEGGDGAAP

[4] = molecular target: T2, PSGL-1, native glycoprotein from human HSPCs (KG1a, CD34^pos-BM) (human, UniProt Q14242 42-412, native glycosylation and tyrosine sulfation); test: SPR; PSGL-1 captured from KG1a lysate on KPL-1-mAb, E-Ig injected, 150 mM NaCl; apparent rate constant; 2nd experiment
T2 construct: mature; also called P-selectin glycoprotein ligand-1
T2 sequence (looked up): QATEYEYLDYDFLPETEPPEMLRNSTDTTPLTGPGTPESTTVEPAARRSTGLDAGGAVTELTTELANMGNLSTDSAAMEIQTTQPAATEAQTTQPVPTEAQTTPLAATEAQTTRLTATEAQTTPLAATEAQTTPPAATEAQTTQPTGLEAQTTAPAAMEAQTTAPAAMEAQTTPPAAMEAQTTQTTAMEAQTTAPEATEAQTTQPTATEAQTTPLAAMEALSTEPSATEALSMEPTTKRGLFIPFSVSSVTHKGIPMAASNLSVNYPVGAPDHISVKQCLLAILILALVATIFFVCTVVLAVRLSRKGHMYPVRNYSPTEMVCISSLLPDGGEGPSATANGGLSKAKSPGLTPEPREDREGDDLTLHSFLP

[5] = molecular target: T2, PSGL-1, native glycoprotein from human …; test: SPR; PSGL-1 captured from KG1a lysate on KPL-1-mAb, E-Ig injected, 150 mM NaCl; apparent rate constant; 1st experiment
[6] = molecular target: T2, PSGL-1, native glycoprotein from human …; test: SPR; PSGL-1 captured from KG1a lysate on KPL-1-mAb, E-Ig injected, 150 mM NaCl; apparent rate constant; mean ± SEM
[7] = molecular target: T3, CD34, native glycoprotein from human HSPCs (KG1a, CD34^pos-BM, CD34^pos-UCB, CD34^pos-AML) (human, UniProt P28906 32-385, native glycosylation (about 120-130 kDa form); sialylated O-glycans and tyrosine sulfation are shown to matter for selectin binding); test: SPR; CD34 captured from KG1a lysate on 563-mAb, E-Ig injected (3.9-2000 nM), 150 mM NaCl; steady-state model; 3rd experiment
T3 construct: mature; also called E-selL CD34
T3 sequence (looked up): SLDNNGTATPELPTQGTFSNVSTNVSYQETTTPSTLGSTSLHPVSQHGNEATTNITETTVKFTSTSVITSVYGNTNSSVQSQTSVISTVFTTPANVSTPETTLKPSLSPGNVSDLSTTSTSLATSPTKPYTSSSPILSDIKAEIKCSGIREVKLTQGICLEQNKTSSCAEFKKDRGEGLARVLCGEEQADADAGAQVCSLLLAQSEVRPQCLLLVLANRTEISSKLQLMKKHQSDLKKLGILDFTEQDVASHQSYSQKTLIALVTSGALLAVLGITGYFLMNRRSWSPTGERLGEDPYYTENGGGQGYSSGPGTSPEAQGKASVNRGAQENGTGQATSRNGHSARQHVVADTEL

[8] = molecular target: CD44 (HCELL), native glycoprotein from human HSPCs (KG1a, CD34^pos fraction) (human) (UniProt P16070); test: SPR; CD44 captured from KG1a lysate on Hermes-3-mAb, E-Ig injected, 150 mM NaCl; apparent rate constant; mean ± SEM
[9] = molecular target: CD44 (HCELL), native glycoprotein from human HSPCs (KG1a, CD34^pos fraction) (human) (UniProt P16070); test: SPR, decay after injection of E-Ig (177 nM, 1 mM CaCl2) over CD44 captured on Hermes-3; apparent constant that includes loss of CD44 from the mAb, s^-1 as in paragraph 58
[10] = molecular target: T1, CD43, native glycoprotein from KG1a …; test: SPR; CD43 captured from KG1a lysate on polyclonal CD43 Ab, E-Ig injected (3.9-2000 nM), 150 mM NaCl; steady-state model; 2nd experiment
[11] = molecular target: CD44 (HCELL), native glycoprotein from human HSPCs (KG1a, CD34^pos fraction) (human) (UniProt P16070); test: SPR; CD44 captured from KG1a lysate on Hermes-3-mAb, E-Ig injected (3.9-2000 nM), 150 mM NaCl; steady-state model; mean ± SEM

Chain of CD44 (HCELL), native glycoprotein from human HSPCs (KG1a, CD34^pos fraction) (human) (P16070 21-742): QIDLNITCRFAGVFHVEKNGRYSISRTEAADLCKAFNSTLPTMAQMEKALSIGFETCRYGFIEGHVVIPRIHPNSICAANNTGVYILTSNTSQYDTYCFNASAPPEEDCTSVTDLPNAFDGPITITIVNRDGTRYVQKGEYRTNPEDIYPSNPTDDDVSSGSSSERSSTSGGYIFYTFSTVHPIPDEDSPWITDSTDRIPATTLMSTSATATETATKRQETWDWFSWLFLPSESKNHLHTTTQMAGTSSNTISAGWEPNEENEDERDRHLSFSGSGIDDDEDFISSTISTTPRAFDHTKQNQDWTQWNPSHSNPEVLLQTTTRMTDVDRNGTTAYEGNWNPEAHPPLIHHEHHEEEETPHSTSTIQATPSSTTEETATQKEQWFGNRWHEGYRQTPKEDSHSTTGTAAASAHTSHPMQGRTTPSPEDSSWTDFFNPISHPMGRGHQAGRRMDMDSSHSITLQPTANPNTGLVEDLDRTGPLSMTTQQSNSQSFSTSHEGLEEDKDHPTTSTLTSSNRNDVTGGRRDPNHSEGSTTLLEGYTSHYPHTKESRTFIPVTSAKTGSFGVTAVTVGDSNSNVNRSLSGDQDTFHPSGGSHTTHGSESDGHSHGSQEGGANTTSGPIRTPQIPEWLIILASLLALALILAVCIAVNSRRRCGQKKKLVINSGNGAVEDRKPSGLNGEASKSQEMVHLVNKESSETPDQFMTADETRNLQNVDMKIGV

B1: recombinant E-selectin human immunoglobulin chimeric protein (Fc fusion)
chain: WSYNTSTEAMTYDEASAYCQQRYTHLVAIQNKEEIEYLNSILSYSPSYYWIGIRKVNNVWVWVGTQKPLTEEAKNWAPGEPNNRQKDEDCVEIYIKREKDVGMWNDERCSKKKLALCYTAACTNTSCSGHGECVETINNYTCKCDPGFSGLKCEQIVNCTALESPEHGSLVCSHPLGNFSYNSSCSISCDRGYLPSSMETMQCMSSGEWSAPIPACNVVECDAVTNPANGFVECFQNPGSFPWNTTCTFDCEEGFELMGAQSLQCTSSGNWDNEKPTCKAVTCRAVRQPQNGSVRCSHSPAGEFTFKSSCNFTCEEGFMLQGPAQVECTTQGQWTQQIPVCEAFQCTALSNPERGYMNCLPSASGSFRYGSSCEFSCEQGFVLKGSKRLQCGPTGEWDNEKPTCEAVRCDAVHQPPKGLVRCAHSPIGEFTYKSSCAFSCEEGFELHGSTQLECTSQGQWTEEVPSCQVVKCSSLAVPGKINMSCSGEPVFGTVCKFACPEGWTLNGSAARTCGATGHWSGLLPTCEAPTESNIP
[1]
  koff: 0.0002 s⁻¹
  kon: 794 M⁻¹ s⁻¹
[2]
  Kd: 234 nM
[3]
  koff: 0.00048 s⁻¹
  kon: 944 M⁻¹ s⁻¹
[4]
  koff: 0.000165 s⁻¹
  kon: 797 M⁻¹ s⁻¹
[5]
  koff: 0.00015 s⁻¹
  kon: 438 M⁻¹ s⁻¹
[6]
  koff: 0.00019 s⁻¹
  kon: 793 M⁻¹ s⁻¹
[7]
  Kd: 297 nM
[8]
  koff: 0.00019 s⁻¹
  kon: 903 M⁻¹ s⁻¹
[9]
  koff-apparent: 0.00019 s⁻¹
[10]
  Kd: 376 nM
[11]
  Kd: 233 nM
